Data on 6 molecules can be found in patent US20170334962A1 (TEXAS A AND M UNIVERSITY SYSTEM, published 2017).

Experiment [1] has as its target T1, recombinant soluble mouse FcRn (mouse, UniProt Q61559 22-290; P01887 21-119, limits assumed).
T1 construct: also called mFcRn
T1 sequence (looked up) 1: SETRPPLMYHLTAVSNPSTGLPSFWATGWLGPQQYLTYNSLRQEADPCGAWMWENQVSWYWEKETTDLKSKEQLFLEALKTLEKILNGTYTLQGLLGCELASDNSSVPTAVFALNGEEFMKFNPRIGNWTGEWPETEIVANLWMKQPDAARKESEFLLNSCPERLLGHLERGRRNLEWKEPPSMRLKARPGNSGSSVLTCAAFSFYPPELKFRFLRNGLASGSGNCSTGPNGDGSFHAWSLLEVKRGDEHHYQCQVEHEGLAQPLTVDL
T1 sequence (looked up) 2: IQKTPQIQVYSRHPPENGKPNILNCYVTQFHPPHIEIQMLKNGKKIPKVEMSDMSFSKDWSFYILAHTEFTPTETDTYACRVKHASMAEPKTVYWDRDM
Kind of experiment: SPR (BIAcore 2000), Fc-hinge immobilized by amine coupling, soluble mouse FcRn as analyte, pH 6.0; value for the higher affinity site; pH 6.0. On the procedure:
(§1) Equilibrium dissociation constants of WT and mutated mouse Fc-hinge fragments (IgG1-derived) for binding to recombinant mouse FcRn were determined using surface plasmon resonance and a BlAcore 2000. Mouse Fc-hinge fragments were immobilized by amine coupling chemistry (to a density of ˜250-850 RU) and BlAcore experiments carried out as described previously, using soluble mouse FcRn in Dulbecco's phosphate-buffered saline (DPBS) plus 0.01% Tween pH 6.0 or 7.4 as analyte. FcRn binds to two sites on IgG that are not equivalent. […] The data were processed as described previously.
A general note: In SPR one partner is held on a chip, and binding of the other changes the refractive index at the surface.

Experiment [2] concerns the target T1, recombinant soluble mouse FcRn. Kind of experiment: SPR (BIAcore 2000), Fc-hinge immobilized by amine coupling, soluble mouse FcRn as analyte, pH 6.0; value for the higher affinity site. On the procedure:
as §1

The target is the same in experiment [3]. Kind of experiment: SPR (BIAcore 2000), Fc-hinge immobilized by amine coupling, soluble mouse FcRn as analyte, pH 7.4; value for the higher affinity site. On the procedure:
as §1

The target is the same in experiment [4]. Kind of experiment: SPR (BIAcore T200), fusion immobilized on a CM5 chip, mFcRn as analyte, pH 6.0; value for the higher affinity site; pH 6.0. On the procedure: (§2) Equilibrium dissociation constants (KDs) for the binding of Fc-OVA(323-339) (WT, TT-HN and H435A) to recombinant mouse FcRn were determined using surface plasmon resonance (BlAcore T200; GE Healthcare) and previously described methods. CM5 chips were coupled with recombinant Fc(WT)-OVA(323-339), Fc(TT-HN)-OVA(323-339), and Fc(H435A)-OVA(323-339) to densities of ˜500-900 RU followed by injection of mFcRn at various concentrations (1-2000 nM) at a flow rate of 10 μl/min using PBS (pH 6.0 or 7.4; Lonza), 0.01% (v/v) Tween-20 as running buffer. Flow cells were regenerated at the end of each cycle using 0.15 M NaCl, 0.1 M sodium bicarbonate (pH 8.5) buffer. FcRn binds to two sites on IgG-Fc that are not equivalent. […] The data were processed as described previously.

Experiment [5] has the same target. Kind of experiment: SPR (BIAcore T200), fusion immobilized on a CM5 chip, mFcRn as analyte, pH 6.0; value for the higher affinity site. The protocol: as §2
For experiment [6] the target is unchanged. Kind of experiment: SPR (BIAcore T200), fusion immobilized on a CM5 chip, mFcRn as analyte, pH 7.4; value for the higher affinity site. The protocol:
as §2

For experiment [7] the target is unchanged. Kind of experiment: SPR (BIAcore T200), fusion immobilized on a CM5 chip, mFcRn as analyte, pH 6.0. On the procedure:
as §2

Numbering of substitutions follows the chain as printed. Names and notes keep the numbering of the source.

B1: WT mouse Fc-hinge fragment (IgG1-derived) (other, UniProt P01868 98-324, looked up)
chain: VPRDCGCKPCICTVPEVSSVFIFPPKPKDVLTITLTPKVTCVVVDISKDDPEVQFSWFVDDVEVHTAQTQPREEQFNSTFRSVSELPIMHQDWLNGKEFKCRVNSAAFPAPIEKTISKTKGRPKAPQVYTIPPPKEQMAKDKVSLTCMITDFFPEDITVEWQWNGQPAENYKNTQPIMNTNGSYFVYSKLNVQKSNWEAGNTFTCSVLHEGLHNHHTEKSLSHSPGK
notes: domain: Fc-hinge; Recombinant Fc-hinge made in CHO-S cells by methods analogous to those for the Fc-MBP fusions; also called WT Fc-hinge
Regarding B1, in experiment [1], the dissociation constant (Kd) is 218 nM.

B2: m-set-2 mouse Fc-hinge fragment (IgG1-derived; T252Y/T256E/H433K/N434F) (other, UniProt P01868 98-324, looked up)
chain: B1 chain with T32Y, T36E, H213K, N214F
notes: domain: Fc-hinge; also called mutation-set-2; TT-HN
In the case of B2, the Kd in experiment [2] came to 1.1 nM; in experiment [3] it was 20.4 nM.

B3: m-set-1 mouse Fc-hinge fragment (IgG1-derived; T252L/T254S/T256F/E380A/H433K/N434F) (other, UniProt P01868 98-324, looked up)
chain: B1 chain with T32L, T34S, T36F, E160A, H213K, N214F
notes: domain: Fc-hinge; also called mutation-set-1
Turning to B3, the Kd in experiment [2] was 2.6 nM; in experiment [3], 115 nM.

B4: mIgG1-Fc(WT)-OVA(323-339) (Fc fusion)
chain: VPRDCGCKPCICTVPEVSSVFIFPPKPKDVLTITLTPKVTCVVVDISKDDPEVQFSWFVDDVEVHTAQTQPREEQFNSTFRSVSELPIMHQDWLNGKEFKCRVNSAAFPAPIEKTISKTKGRPKAPQVYTIPPPKEQMAKDKVSLTCMITDFFPEDITVEWQWNGQPAENYKNTQPIMDTDGSYFVYSKLNVQKSNWEAGNTFTCSVLHEGLHNHHTEKSLSHSPGKGSGGISQAVHAAHAEINEAGRGSGHHHHHH
Consider B4, for which the equilibrium dissociation constant (Kd) in experiment [4] is 300 nM.

B5: mIgG1-Fc(TT-HN)-OVA(323-339) (Fc fusion)
chain: B4 chain with T32Y, T36E, H213K, N214F
notes: The limits of the leader are inferred as for m4; also called Fc(T252Y/T256E/H433K/N434F)-antigen
Consider B5, for which the Kd stood at 3 nM in experiment [5] and 14.9 nM in experiment [6].

B6: mIgG1-Fc(H435A)-OVA(323-339) (Fc fusion)
chain: B4 chain with H215A
notes: The limits of the leader are inferred as for m4
Regarding B6, the binding result in experiment [7] is “no binding (tested: mFcRn injected at 1-2000 nM)”.

What is called Kd is the concentration at which binding is half-saturated.
